For two substances, EC50, IC50, authentic virus neutralization and IC50, pseudovirus neutralization results are on record in patent US20240287161A1.

For assay [1], the target named is SARS-CoV-2 spike receptor-binding domain (RBD, amino acids 322 to 536), histidine-tagged (Example 2) (SARS-CoV-2) (UniProt P0DTC2).
Assay [2] has as its target Authentic CoV2 (SARS-CoV-2 JPN/TY/WK-521).
The target of assay [3] is SARS-CoV2 S protein on VSV pseudovirus (SARS-CoV-2) (UniProt P0DTC2).

As usually defined, the EC50 is the midpoint of the concentration-response curve. A low value points to greater potency. For the substance REGN10987 (antibody), in assay [1], the EC50 stood at 3.3 µg/mL. In assay [2], this substance gave an IC50, authentic virus neutralization of 0.134 µg/mL. Also, the IC50, pseudovirus neutralization in assay [3] stood at 0.0416 µg/mL.

In the case of REGN10933 (antibody), in assay [1], the EC50 came to 0.194 µg/mL. The same substance registered an IC50, authentic virus neutralization in assay [2] of 0.0381 µg/mL. Further, in assay [3], the IC50, pseudovirus neutralization turned out to be 0.0089 µg/mL.
